Test results as given in paper PMC13174313 (bioRxiv, 2026).
One block for each molecule: values may come before it.

How the values were obtained:
Assay in all cases: ITC
[1] = target: TII: Tctex1 homodimer with two IC chains bound (D. melanogaster) (UniProt Q94524)
[2] = target: D. melanogaster dynein light chain LC8 (D. melanogaster, UniProt Q24117 1-89)
[3] = target: T1, D. melanogaster dynein light chain Tctex1 (D. melanogaster, UniProt Q94524 1-111)
T1 sequence: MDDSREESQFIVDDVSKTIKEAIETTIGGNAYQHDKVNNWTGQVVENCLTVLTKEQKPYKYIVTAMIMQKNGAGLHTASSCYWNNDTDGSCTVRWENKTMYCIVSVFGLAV

D. melanogaster dynein light chain LC8 (D. melanogaster, UniProt Q24117 1-89), sequence (Q24117 whole entry): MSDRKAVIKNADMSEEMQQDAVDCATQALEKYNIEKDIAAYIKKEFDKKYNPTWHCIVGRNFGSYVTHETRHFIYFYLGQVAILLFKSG

- dH (TII -> TIILII) [1]: -25.8 kcal/mol
Molecule: D. melanogaster dynein light chain LC8 (from UniProt Q24117 1-89) (natural protein)

- dH, first IC on the LC8 dimer (LI) [2]: -14.8 kcal/mol
- dH, second IC on the LC8 dimer (LI to LII) [2]: -15.1 kcal/mol
- dH, first IC on the Tctex1 dimer (TI) [3]: -6.76 kcal/mol
- dH, second IC on the Tctex1 dimer (TI to TII) [3]: -4.97 kcal/mol
B1: D. melanogaster dynein intermediate chain ICTL (domain or fragment, UniProt Q24246 84-143, looked up)
chain: SNTQTPDASLQATVNGQSGGKKQPLNLSVYNVQATNIPPKETLVYTKQTQTTSTGGGNGD
